Assay results reported in paper PMC9106297, “Structure of a TRAPPII-Rab11 activation intermediate reveals GTPase substrate selection mechanisms” (Science Advances, 2022).

Key:
Assay in all cases: cryo-EM structure; TRAPPII purified from yeast, incubated with tenfold molar excess of Rab11/Ypt32-7xHis and calf intestine alkaline phosphatase at 4°C overnight (nucleotide-free Rab), complex purified on Calmodulin Sepharose and by SEC; 10 mM tris (pH 8.0), 150 mM NaCl, 0.1% CHAPS, 1 mM Mg acetate, 1 mM dithiothreitol; single-particle cryo-EM
Settings in all cases: both partners purified
[1] = target: T1, Trs33 (TRAPP core subunit, in purified TRAPPII) (S. cerevisiae, UniProt Q99394 1-268)
T1 construct: Trs33, S. cerevisiae, endogenous; source: endogenous, purified from S. cerevisiae as a subunit of TRAPPII
T1 sequence (looked up): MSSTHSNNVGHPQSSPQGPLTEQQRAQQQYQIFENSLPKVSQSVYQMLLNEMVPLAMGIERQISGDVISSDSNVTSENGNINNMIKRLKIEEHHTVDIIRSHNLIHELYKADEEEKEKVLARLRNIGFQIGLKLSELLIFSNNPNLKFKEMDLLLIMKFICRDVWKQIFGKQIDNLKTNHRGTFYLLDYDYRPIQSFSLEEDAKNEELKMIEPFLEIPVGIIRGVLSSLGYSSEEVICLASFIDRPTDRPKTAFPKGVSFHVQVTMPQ

[2] = target: T2, Trs130 (TRAPPII-specific subunit, in purified TRAPPII) (S. cerevisiae, UniProt Q03660 1-1102)
T2 construct: Trs130, S. cerevisiae, endogenous copy tagged at the C terminus; source: endogenous, purified from S. cerevisiae as a subunit of TRAPPII; not shown: held on Calmodulin Sepharose), C-terminal, kept
T2 sequence (looked up): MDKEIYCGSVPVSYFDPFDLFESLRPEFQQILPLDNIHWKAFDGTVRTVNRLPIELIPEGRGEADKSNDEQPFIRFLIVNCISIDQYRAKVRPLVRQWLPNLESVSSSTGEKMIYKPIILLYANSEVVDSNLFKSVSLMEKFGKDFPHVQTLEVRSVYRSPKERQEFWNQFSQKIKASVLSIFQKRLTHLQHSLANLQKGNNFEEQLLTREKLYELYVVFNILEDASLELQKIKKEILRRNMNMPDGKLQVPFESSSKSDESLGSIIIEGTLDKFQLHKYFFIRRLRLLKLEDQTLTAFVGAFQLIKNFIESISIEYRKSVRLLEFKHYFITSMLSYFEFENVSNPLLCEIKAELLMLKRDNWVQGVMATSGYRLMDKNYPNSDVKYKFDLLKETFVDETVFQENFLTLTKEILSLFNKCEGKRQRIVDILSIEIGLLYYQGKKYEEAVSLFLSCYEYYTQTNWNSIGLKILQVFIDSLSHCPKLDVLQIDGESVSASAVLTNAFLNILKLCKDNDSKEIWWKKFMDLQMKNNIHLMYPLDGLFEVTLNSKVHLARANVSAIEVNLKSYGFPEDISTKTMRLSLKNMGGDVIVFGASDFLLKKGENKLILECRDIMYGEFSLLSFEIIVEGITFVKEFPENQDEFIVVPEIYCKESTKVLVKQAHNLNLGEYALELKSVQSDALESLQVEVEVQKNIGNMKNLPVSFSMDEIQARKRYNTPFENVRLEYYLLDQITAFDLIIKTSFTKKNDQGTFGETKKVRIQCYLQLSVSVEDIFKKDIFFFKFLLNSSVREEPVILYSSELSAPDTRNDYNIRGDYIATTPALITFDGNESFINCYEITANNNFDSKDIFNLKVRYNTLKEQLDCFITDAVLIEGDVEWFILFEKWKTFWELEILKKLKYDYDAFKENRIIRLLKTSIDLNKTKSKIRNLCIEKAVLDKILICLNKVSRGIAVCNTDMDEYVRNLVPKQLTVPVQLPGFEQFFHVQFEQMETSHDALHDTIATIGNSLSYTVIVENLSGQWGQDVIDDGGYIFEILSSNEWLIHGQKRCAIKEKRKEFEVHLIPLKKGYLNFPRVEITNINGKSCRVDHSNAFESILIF

[3] = target: T3, Bet3 (TRAPP core subunit, in purified TRAPPII) (S. cerevisiae, UniProt P36149 1-193)
T3 construct: Bet3, S. cerevisiae, endogenous; source: endogenous, purified from S. cerevisiae as a subunit of TRAPPII
T3 sequence (looked up): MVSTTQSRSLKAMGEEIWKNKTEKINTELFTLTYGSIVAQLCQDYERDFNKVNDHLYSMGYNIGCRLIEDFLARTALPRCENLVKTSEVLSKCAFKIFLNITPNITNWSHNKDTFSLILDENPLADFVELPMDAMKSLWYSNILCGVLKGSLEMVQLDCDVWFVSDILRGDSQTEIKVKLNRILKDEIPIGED

binding result [1]: binds
binding result [2]: binds
binding result [3]: binds
B1: Tca17 (TRAPPII subunit, in purified TRAPPII) (natural protein, S. cerevisiae, UniProt P32613 1-152, looked up)
chain: MSLRPCFVSLIDESDKPILIYVPNEAENEMNDVLKYNVLSNISLDYFESALVEWHSLDSKPLLKSIFQLEGVSVFAMLIKQTGLKIVIGFEQKSLSGADDEFEAINQIFETVRKIYIRVKCNPLLVSGDEKSIIKSLERKFDELFISTEVEL
notes: Tca17, S. cerevisiae, endogenous; source: endogenous, purified from S. cerevisiae as a subunit of TRAPPII
